Substitutions are numbered along the chain they refer to.

Details in all cases: label: Alexa680 at 5' and 3'
In data set [1] the target is T1, hPUF_MT(1-2-6-5-6-5-6-7-8).
T1 chain: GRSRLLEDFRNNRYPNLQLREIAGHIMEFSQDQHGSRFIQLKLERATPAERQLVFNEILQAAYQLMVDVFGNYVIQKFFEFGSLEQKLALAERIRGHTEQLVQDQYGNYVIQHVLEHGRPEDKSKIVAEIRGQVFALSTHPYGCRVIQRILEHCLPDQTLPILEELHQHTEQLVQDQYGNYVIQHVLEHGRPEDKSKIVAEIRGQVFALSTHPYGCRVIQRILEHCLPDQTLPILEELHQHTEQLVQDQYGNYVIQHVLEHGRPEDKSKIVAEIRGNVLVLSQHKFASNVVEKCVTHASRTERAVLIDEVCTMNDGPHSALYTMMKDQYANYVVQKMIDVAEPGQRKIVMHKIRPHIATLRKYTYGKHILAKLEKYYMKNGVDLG
As to the kind of experiment: EMSA. (In general: In EMSA bound probe runs differently from free probe, usually more slowly.)

Data set [2] has as its target T2, hPUF_MT(R1_S12N, R3→R5, R4→R6) (R1 repeat S12N).
T2 chain: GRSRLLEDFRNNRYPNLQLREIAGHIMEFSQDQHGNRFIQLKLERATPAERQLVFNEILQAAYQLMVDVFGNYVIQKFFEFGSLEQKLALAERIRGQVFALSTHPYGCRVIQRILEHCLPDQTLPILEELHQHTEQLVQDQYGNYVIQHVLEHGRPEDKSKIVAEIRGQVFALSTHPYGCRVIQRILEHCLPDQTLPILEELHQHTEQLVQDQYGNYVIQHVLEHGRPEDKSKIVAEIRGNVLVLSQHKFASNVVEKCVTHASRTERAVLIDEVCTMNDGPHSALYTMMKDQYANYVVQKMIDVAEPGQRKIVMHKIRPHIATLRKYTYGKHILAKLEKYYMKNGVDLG
The data set is described as follows: EMSA; U>C>>G=A.

Data set [3] addresses T3, hPUF_MT(R3→R5, R4→R6).
T3 chain: T2 chain with N36S
As to the kind of experiment: EMSA; U=C>A>G at R1 position; backbone printed as R4→R5.

In another data set the target is T4, hPUF_MT(R8→R5) (UniProt Q14671 SEQ:1-349).
T4 chain: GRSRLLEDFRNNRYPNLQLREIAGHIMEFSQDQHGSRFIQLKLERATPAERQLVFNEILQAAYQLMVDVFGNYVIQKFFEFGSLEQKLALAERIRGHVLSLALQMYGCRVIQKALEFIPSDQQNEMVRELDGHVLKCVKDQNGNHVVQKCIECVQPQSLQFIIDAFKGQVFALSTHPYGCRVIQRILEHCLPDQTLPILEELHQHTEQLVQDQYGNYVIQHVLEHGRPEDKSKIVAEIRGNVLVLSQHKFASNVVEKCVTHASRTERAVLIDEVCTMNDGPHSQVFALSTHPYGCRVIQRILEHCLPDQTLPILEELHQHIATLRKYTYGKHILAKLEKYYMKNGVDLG
As to the kind of experiment: EMSA; substantially no binding.

In data set [4] the target is T5, hPUF_MT(R8_N12S, R3→R5, R4→R6) (R8 repeat N12S).
T5 chain: T2 chain with N36S, N295S
The data set is described as follows: EMSA; no binding.

Data set [5] concerns the target T6, hPUF_MT(R8_N12C, R3→R5, R4→R6) (R8 repeat N12C).
T6 chain: T2 chain with N36S, N295C
As to the kind of experiment: EMSA; no binding.

For data set [6], the target named is T3, hPUF_MT(R3→R5, R4→R6). The data set is described as follows: EMSA; binds U exclusively at R8 position.
In data set [7] the target is T7, hPUF_MT(1-2-5-5-6-5-6-7-8).
T7 chain: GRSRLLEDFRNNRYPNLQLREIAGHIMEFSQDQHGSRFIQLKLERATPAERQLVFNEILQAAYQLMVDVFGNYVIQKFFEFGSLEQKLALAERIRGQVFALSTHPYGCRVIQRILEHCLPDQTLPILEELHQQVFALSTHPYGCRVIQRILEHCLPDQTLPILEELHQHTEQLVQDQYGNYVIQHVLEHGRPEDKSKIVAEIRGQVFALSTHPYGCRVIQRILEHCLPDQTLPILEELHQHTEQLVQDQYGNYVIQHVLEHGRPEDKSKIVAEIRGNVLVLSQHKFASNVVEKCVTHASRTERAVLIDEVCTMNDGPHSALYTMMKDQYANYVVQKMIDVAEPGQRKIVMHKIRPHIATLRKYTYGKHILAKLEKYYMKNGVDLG
The data set is described as follows: EMSA.

For data set [8], the target named is T8, hPUF_MT(R7_S12C,E16Q, R3→R5, R4→R6) (R7 repeat S12C,E16Q).
T8 chain: T2 chain with N36S, S252C, E256Q
As to the kind of experiment: EMSA; U>C.

Data set [9] has as its target T3, hPUF_MT(R3→R5, R4→R6). The data set is described as follows: EMSA; binds G exclusively at R7 position.
Data set [10] concerns the target T9, hPUF_MT(R7_S12N,E16Q, R3→R5, R4→R6) (R7 repeat S12N,E16Q).
T9 chain: T2 chain with N36S, S252N, E256Q
The data set is described as follows: EMSA; binds U exclusively.

The target of data set [11] is T10, hPUF_MT(R7_E16R, R3→R5, R4→R6) (R7 repeat E16R).
T10 chain: T2 chain with N36S, E256R
The data set is described as follows: EMSA; binds C and U.

In data set [12] the target is T11, hPUF_MT(1-2-5-6-5-6-6-7-8).
T11 chain: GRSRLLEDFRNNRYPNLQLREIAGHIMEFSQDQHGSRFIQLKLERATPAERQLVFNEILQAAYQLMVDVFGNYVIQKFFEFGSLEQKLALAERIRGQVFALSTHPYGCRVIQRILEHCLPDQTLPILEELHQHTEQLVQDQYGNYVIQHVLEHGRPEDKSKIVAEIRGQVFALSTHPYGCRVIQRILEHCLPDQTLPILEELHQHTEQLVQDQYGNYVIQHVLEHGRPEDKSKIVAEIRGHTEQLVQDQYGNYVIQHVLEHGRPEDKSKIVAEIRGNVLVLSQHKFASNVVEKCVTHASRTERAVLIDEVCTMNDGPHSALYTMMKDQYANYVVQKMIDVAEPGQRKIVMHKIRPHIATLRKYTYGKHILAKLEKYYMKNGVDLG
The data set is described as follows: EMSA.

Data set [13] deals with T12, hPUF_MT(R1_Q16E, R3→R5, R4→R6) (R1 repeat Q16E).
T12 chain: T2 chain with N36S, Q40E
The data set is described as follows: EMSA; G>>U=C.

In data set [14] the target is T3, hPUF_MT(R3→R5, R4→R6). As to the kind of experiment: EMSA; U=C>A>G at R1 position.
The target in data set [15] is T13, hPUF_MT(R1_Q16R, R3→R5, R4→R6) (R1 repeat Q16R).
T13 chain: T2 chain with N36S, Q40R
The data set is described as follows: EMSA; C>U>>G>A; printed as Q16E (C recognition).

B1: OTS-2080 (ssRNA)
RNA: CCAGAAUUGUAUAUUAUUCG
In the case of B1, the binding signal in data set [1] was ~3 fold of WT.

B2: OTS-2022 (ssRNA)
RNA: CCAGAAUUGUAUAUUUUCG
As for B2, the binding result in data set [2] is “binds”; in the data set with hPUF_MT(R3→R5, R4→R6) [3], “binds”.

B3: OTS-1825 (ssRNA)
RNA: CCAGAAUAGUAUAUAUUCG
As to B3, the binding result is on record as “no binding” with hPUF_MT(R8→R5); “no binding” in [4]; “no binding” in data set [5]; “no binding” with hPUF_MT(R3→R5, R4→R6) [6].

B4: OTS-2081 (ssRNA)
RNA: CCAGAAUUGUAUAAUAUUCG
Take B4: in data set [7], the binding signal is ~3 fold of WT.

B5: OTS-2032 (ssRNA)
RNA: CCAGAAUUUUAUAUAUUCG
Regarding B5, the binding result in data set [8] is recorded as “binds”; in the data set with hPUF_MT(R3→R5, R4→R6) [9], “no binding”; in [10], “binds”; in data set [11] it was “binds”.

B6: OTS-2082 (ssRNA)
RNA: CCAGAAUUGUUAUAUAUUCG
For the molecule B6, the binding signal in data set [12] is ~3 fold of WT.

B7: OTS-2020 (ssRNA)
RNA: CCAGAAUUGUAUAUGUUCG
As to B7, the binding result in [13] is “binds”.

B8: OTS-2021 (ssRNA)
RNA: CCAGAAUUGUAUAUCUUCG
B8: the binding result with hPUF_MT(R3→R5, R4→R6) [14] was “binds”; in data set [15] it was “binds”.

The values are drawn from patent US11472855, “RNA-binding protein” (Panitch Schwarze Belisario & Nadel LLP).
